{"source": "patent US20100137190A1", "about": "“LIQUID COMPOSITION FOR EXTERNAL APPLICATION AND PREPARATION FOR EXTERNAL APPLICATION FOR TREATMENT OF SKIN ULCER” (priority 2006, published 2010)", "molecules": {"B1": {"name": "GM-CSF: granulocyte macrophage colony stimulating factor, mouse-derived recombinant (R&D System), dissolved in atelocollagen solution (protein, UniProt P01587 18-141, looked up)", "Granulocyte-macrophage …": "APTRSPITVTRPWKHVEAIKEALNLLDDMPVTLNEEVEVVSNEFSFKKLTCVQTRLKIFEQGLRGNFTKLKGALNMTASYYQTYCPPTPETDCETQVTTYADFIDSLKTFLTDIPFECKKPGQK"}}, "test_system": "ulcer model of delayed skin wound healing (60 sec ethanol exposure model)", "assay": "Healing effect of GM-CSF external agent on intractable skin ulcer", "format": "in vivo", "description": "By using a C57BL/6 mouse, an ulcer model of delayed skin wound healing as an intractable skin ulcer model was produced. Specifically, full thickness dorsal skin tissue with a size of 2×1.5 cm of a C57BL/6 mouse was excised, whereby the fascia was exposed with almost no bleeding. Then, the wound area was completely covered with cotton which had been sufficiently soaked in 70% ethanol, whereby ethanol exposure for 30 sec, 60 sec, 300 sec and 600 sec was carried out. After that, the wound area was air-dried, and the area of the wound area was measured (day 0). 7 days after completion of the experiment, the area of the wound area was measured, which was compared with the area of the wound area on day 0, and a change in the area of the wound area was examined. As a result, the shrinkage of the wound area was reduced as the time of ethanol exposure was increased, and the shrinkage hardly occurred by the 300 sec exposure. Incidentally, the mouse subjected to 600 sec ethanol exposure died at 3 days after the experiment due to deterioration of systemic symptoms. In the case where the time of ethanol exposure was short such as 30 sec exposure or 60 sec exposure, the healing was delayed because the tissue around the wound area directly received degenerative damage due to ethanol, however, granulation tissue was formed in the wound area in one week after the ethanol exposure, and the wound area was covered with epidermal tissue in about 3 weeks and the healing was completed. The 60 sec exposure was to be a factor of delaying the shrinkage of the wound area, but there was no systemic symptom and its effect was sufficient, therefore, this mouse was adopted as an ulcer model of delayed skin wound healing.\nAs GM-CSF, a mouse-derived recombinant (R&D System) was used. A solution obtained by dissolving this GM-CSF in an atelocollagen solution at a concentration of 20 μg/100 μL was applied to an affected area of the above-mentioned ulcer model of delayed skin wound healing (60 sec ethanol exposure model) and coagulated, and evaluation was performed in the healing process for 7 days. Further, a group in which only an atelocollagen solution (a 3 mg/mL hydrochloric acid solution) was applied to the affected area and coagulated was used as a control. […] When the shrinkage of the wound area after 7 days was examined, the relative area of the wound area in the GM-CSF administration group was larger by about 15% than that of the control group, and the shrinking action of natural healing of a wound area was inhibited, and the wound area was exacerbated.", "note": "“Also recorded” adds a separate entry of the source.", "data": [{"molecule": "B1", "values": [{"measurement": "histology / symptoms of the wound area (edema, swelling)", "setting": "20 μg/100 μL in atelocollagen solution, 7-day period", "result": "edema was noted"}, {"measurement": "thickness of granulation tissue compared with control group", "setting": "20 μg/100 μL in atelocollagen solution, 7 days", "result": "slightly thicker"}, {"measurement": "relative area of the wound area, larger than that of the control group", "setting": "20 μg/100 μL in atelocollagen solution, after 7 days, control atelocollagen only", "result": "about 15%"}, {"measurement": "wound healing effect on intractable skin ulcer (overall finding)", "setting": "external application", "result": "does not have an effect on intractable skin ulcers; also recorded: does not have a wound healing accelerating effect"}]}]}
